B1: CPEB3 Ribozyme (parent)
chain: GGGGGCCACAGCAGAAGCGUUCACGUCGCGGCCCCUGUCAGAUUCUGGUGAAUCUGCGAAUUCUGCUGU

Variants of: B1
Assay: self-cleavage, relative activity (ratio to wild type); higher = more cleavage; co-transcriptional

Compared with G47C U55G, G47C U55A is higher in self-cleavage: 0.931 for the first, 1.03 for the second.

First: U43G C45U
Second: C45A C66U
The self-cleavage of the first is higher: 1.02 for the first, 0.919 for the second.

Going from C45A C66A to C45A A59G, the self-cleavage rises from 0.744 to 0.971.

First: U46C G65U
Second: U44C G65A
The self-cleavage of the first is higher: 0.629 for the first, 0.519 for the second.

Going from U44C G65U to U44C G47C, the self-cleavage rises from 0.488 to 0.963.

Compared with G47A U67A, U43G G48U is higher in self-cleavage: 0.969 for the first, 1.01 for the second.

First: U44G C54A
Second: C45G U49A
The self-cleavage of the first is lower: 0.596 for the first, 0.987 for the second.

Going from U46G U49G to U43C C66A, the self-cleavage falls from 0.972 to 0.614.

First: C45G U69G
Second: U44A C54U
The self-cleavage of the first is higher: 1.05 for the first, 0.923 for the second.

Compared with U44A U46G, U44A U46C is higher in self-cleavage: 0.981 for the first, 0.993 for the second.

Going from U46C G50U to G47A U61A, the self-cleavage falls from 0.984 to 0.941.

Compared with U43G C54U, G47A U69C is higher in self-cleavage: 0.662 for the first, 1.06 for the second.

First: C45G G50U
Second: G47A G48U
The self-cleavage of the first is lower: 0.961 for the first, 1.03 for the second.

First: U46G A52G
Second: U46G A52C
The self-cleavage of the first is higher: 0.992 for the first, 0.942 for the second.

Compared with G47C U49A, U44G C63G is lower in self-cleavage: 1 for the first, 0.588 for the second.

Going from U46C A59C to G47A G68C, the self-cleavage rises from 0.744 to 1.

Going from U46C U53C to U46C U53A, the self-cleavage rises from 0.878 to 0.933.

Going from U44G A59C to C45G C63G, the self-cleavage rises from 0.629 to 0.798.

First: C45G C63A
Second: C45A G47C
The self-cleavage of the first is lower: 0.732 for the first, 0.995 for the second.

Going from C45A G47U to C45A G47A, the self-cleavage rises from 0.986 to 0.999.

Going from U46A C54U to G47A A51C, the self-cleavage rises from 0.973 to 0.983.

Going from U43G U64G to U44C U61A, the self-cleavage rises from 0.649 to 0.801.

First: U44C U61G
Second: U46A U67A
The self-cleavage of the first is lower: 0.49 for the first, 0.972 for the second.

Compared with U46G U69G, U46G U69A is lower in self-cleavage: 1.04 for the first, 1.01 for the second.

Compared with C45U A51G, C45U G50U is lower in self-cleavage: 1.01 for the first, 0.991 for the second.

Going from C45G G68U to U46A A60U, the self-cleavage falls from 0.979 to 0.556.

Compared with C45A G58U, C45A A60U is lower in self-cleavage: 0.988 for the first, 0.424 for the second.

Compared with C45A A60C, C45A A60G is higher in self-cleavage: 0.476 for the first, 0.862 for the second.

Going from U46A U53A to U46A U53G, the self-cleavage falls from 0.989 to 0.931.

Going from U46A U53C to U44C G56A, the self-cleavage falls from 0.971 to 0.7.

Compared with C45A G65A, U43G G47A is higher in self-cleavage: 0.814 for the first, 0.95 for the second.

Going from U43G G47U to C45A U49G, the self-cleavage rises from 0.999 to 1.01.

First: C45A U49A
Second: U46A A51G
The self-cleavage of the first is higher: 0.997 for the first, 0.946 for the second.

First: U43G C63A
Second: U43G C63U
The self-cleavage of the first is lower: 0.436 for the first, 0.751 for the second.

Going from U44A C66A to U43C G48A, the self-cleavage rises from 0.758 to 1.02.

Going from C45G C66A to C45G C66U, the self-cleavage rises from 0.767 to 0.961.

Going from C45G G56C to C45G G56U, the self-cleavage rises from 0.469 to 0.722.

First: U46C G68U
Second: U46A G68U
The self-cleavage of the first is higher: 1.02 for the first, 0.988 for the second.

First: G47C U61C
Second: U44G C66A
The self-cleavage of the first is higher: 0.87 for the first, 0.733 for the second.

Compared with U44A C63G, U44A C63U is higher in self-cleavage: 0.645 for the first, 0.985 for the second.

Going from C45U U46G to C45U U46A, the self-cleavage rises from 0.952 to 0.999.

Going from C45U U46C to G47A U55A, the self-cleavage rises from 0.975 to 1.

Compared with C45U U69G, U44G C57G is lower in self-cleavage: 1.05 for the first, 0.335 for the second.

First: U44G C57U
Second: U44G C57A
The self-cleavage of the first is lower: 0.23 for the first, 0.327 for the second.

Going from G47C U67A to U43G G68C, the self-cleavage falls from 1.04 to 0.902.

Going from U43G G65A to U43C G50U, the self-cleavage rises from 0.453 to 0.99.

Compared with U43C G50C, U44G G50A is higher in self-cleavage: 0.915 for the first, 1 for the second.

First: U46A C63G
Second: U46A C63A
The self-cleavage of the first is lower: 0.838 for the first, 0.908 for the second.

First: U44C G68U
Second: U44A G56U
The self-cleavage of the first is higher: 0.987 for the first, 0.677 for the second.

Going from U46C C54U to U44G U61A, the self-cleavage falls from 0.975 to 0.808.

Compared with U44A U62A, G47A U64G is higher in self-cleavage: 0.838 for the first, 0.959 for the second.

Compared with C45A G48A, U44A G50A is lower in self-cleavage: 1.02 for the first, 0.962 for the second.

Going from U43C G47U to G47C G56A, the self-cleavage rises from 0.98 to 1.

First: U46G G65A
Second: U46G G65U
The self-cleavage of the first is higher: 0.928 for the first, 0.913 for the second.

Compared with G47C C63G, G47C C63A is higher in self-cleavage: 0.891 for the first, 0.944 for the second.

Compared with C45G U62A, U46A A52U is higher in self-cleavage: 0.939 for the first, 0.981 for the second.

First: U46A A52G
Second: U46A U64C
The self-cleavage of the first is higher: 1.03 for the first, 0.98 for the second.

Going from G47C C57G to U43G U46A, the self-cleavage rises from 0.299 to 0.959.

Going from G47U C54G to U44A G47U, the self-cleavage rises from 0.975 to 1.

Going from U44A G47A to U46A U69G, the self-cleavage rises from 1.01 to 1.03.

Going from C45U U49G to C45U U49C, the self-cleavage falls from 1.01 to 0.986.

First: U44A G48U
Second: U44A G48C
The self-cleavage of the first is lower: 0.982 for the first, 1.01 for the second.

Compared with U44C A60C, U43A U67G is higher in self-cleavage: 0.378 for the first, 0.889 for the second.

First: G47A A60C
Second: G47A A60G
The self-cleavage of the first is lower: 0.397 for the first, 0.944 for the second.

Going from U44A G58U to U44A G58A, the self-cleavage rises from 0.951 to 0.963.

Compared with C45U G65A, G47A U49A is higher in self-cleavage: 0.929 for the first, 1.01 for the second.

Going from G47A U49C to C45U U62C, the self-cleavage falls from 0.975 to 0.895.

Compared with C45U U62G, C45U C54G is lower in self-cleavage: 0.847 for the first, 0.785 for the second.

Compared with C45U C54U, U43G C66G is lower in self-cleavage: 1.01 for the first, 0.484 for the second.

Going from U46A U61A to U43G G50C, the self-cleavage falls from 0.982 to 0.864.

Compared with C45A G56A, U44A U55G is lower in self-cleavage: 0.848 for the first, 0.551 for the second.

First: G47A C57G
Second: C45G C54A
The self-cleavage of the first is lower: 0.303 for the first, 0.579 for the second.

Going from G47C C54A to U46G G58A, the self-cleavage rises from 0.949 to 0.957.

Going from U46G G58C to G47C A51G, the self-cleavage rises from 0.936 to 1.

Compared with G47C A51U, U46C G58C is lower in self-cleavage: 1.02 for the first, 0.976 for the second.

Compared with U46C G58U, U46A U55G is lower in self-cleavage: 0.933 for the first, 0.916 for the second.

First: G47U A51G
Second: U44A U49C
The self-cleavage of the first is higher: 0.998 for the first, 0.922 for the second.

Going from U43G G56U to C45A U55C, the self-cleavage rises from 0.385 to 0.516.

First: U43A U69C
Second: U43C G68C
The self-cleavage of the first is higher: 1.04 for the first, 1.01 for the second.

First: U43C G68A
Second: U46A G56U
The self-cleavage of the first is higher: 1.03 for the first, 0.941 for the second.

Compared with U46A G56C, C45G U64A is higher in self-cleavage: 0.858 for the first, 0.908 for the second.

First: U46G C63G
Second: U43G U61G
The self-cleavage of the first is higher: 0.825 for the first, 0.265 for the second.

Going from U43G U61A to U44C C63A, the self-cleavage falls from 0.701 to 0.542.

Work on U46C A52U yielded a self-cleavage of 0.974.
